Measurements as given in patent US6127119, “Nucleic acid ligands of tissue target” (NeXstar Pharmaceuticals, Inc.).
Residue numbers refer to the chain shown, from its start.

B1: FCN22 (ssRNA)
RNA: GGGAGAUAAGAAUAAACGCUCAAGUGAGAAAUGUCGGGGGCGAUGACUUGGACGGUCCACCGUUCGACAGGAGGCUCACAACAGGC
modifications: 2'-F pyrimidines
B2: FC34 (ssRNA)
RNA: GGGAGAUAAGAAUAAACGCUCAAAAGGCCGAACAACGAAGUUUGAUUCAGGUACUCAGCGUUCUUCGACAGGAGGCUCACAACAGGC
modifications: 2'-F pyrimidines
B3: FCN54 (ssRNA)
RNA: GGGAGAUAAGAAUAAACGCUCAACUGGGCUCAUCCGGCGAAUGAUGCAAGGAAGAUUUCACAUUUCGACAGGAGGCUCACAACAGGC
modifications: 2'-F pyrimidines
B4: FCN59 (ssRNA)
RNA: GGGAGAUAAGAAUAAACGCUCAAAUGAUGCUCCUGAAGUAAUCACCAGGACAUCCUCGGCAUUUCGACAGGAGGCUCACAACAGGC
modifications: 2'-F pyrimidines
B5: FCN18 (ssRNA)
RNA: GGGAGAUAAGAAUAAACGCUCAAAUGAACGACCGCGGGCAGUCGCGUUCAAAUGAGUGGUUUUUUCGACAGGAGGCUCACAACAGGC
modifications: 2'-F pyrimidines
B6: FCN12 (ssRNA)
RNA: GGGAGAUAAGAAUAAACGCUCAAAGAGAGGAACUGCGAUUCAGACCAAAACGGAAAUGGCUGUUUCGACAGGAGGCUCACAACAGGC
modifications: 2'-F pyrimidines
B7: FCN13 (ssRNA)
RNA: GGGAGAUAAGAAUAAACGCUCAACGUGAUGACAGCUCGGACGGCUCAUUGCGCGGAGUAGCUAUUCGACAGGAGGCUCACAACAGGC
modifications: 2'-F pyrimidines
B8: FCN6 (ssRNA)
RNA: GGGAGAUAAGAAUAAACGCUCAACAACGAUUAUCUUUUCGGCCGUGAAACCCAAACUGACGCCUUCGACAGGAGGCUCACAACAGGC
modifications: 2'-F pyrimidines
B9: FCN52 (ssRNA)
RNA: GGGAGAUAAGAAUAAACGCUCAAAGCCGAGCUAAUCCCGAAAGUGACCCGGAACGACGCGGCAUUCGACAGGAGGCUCACAACAGGC
modifications: 2'-F pyrimidines
B10: FCN49 (ssRNA)
RNA: GGGAGAUAAGAAUAAACGCUCAAGAAUGGAGCCAAGAAAGACAGCGAUGUCUCGGACGAUGAGUUCGACAGGAGGCUCACAACAGGC
modifications: 2'-F pyrimidines
B11: FCN58 (ssRNA)
RNA: B10 RNA with A25G
modifications: 2'-F pyrimidines
B12: FCN9 (ssRNA)
RNA: GGGAGAUAAGAAUAAACGCUCAACGUUGAAAUCGCUCCUCAGUGUGAGUUGAAUCAGCUGACCUUCGACAGGAGGCUCACAACAGGC
modifications: 2'-F pyrimidines
B13: FCN25 (ssRNA)
RNA: GGGAGAUAAGAAUAAACGCUCAAGAUAUACUAACUUUCUUUGAAAGCCAAAAGUAUUAAUGCGUUCGACAGGAGGCUCACAACAGGC
modifications: 2'-F pyrimidines
B14: FCN69 (ssRNA)
RNA: GGGAGAUAAGAAUAAACGCUCAAGAUUGACACGCACUCCAAUGGCUCUGAAGUGUUCGUGUGCUUCGACAGGAGGCUCACAACAGGC
modifications: 2'-F pyrimidines
B15: FCN21 (ssRNA)
RNA: GGGAGAUAAGAAUAAACGCUCAAAGUUUGGAUUCGGCAGGUGCUGAGACUUUGAUAGCCACUAUUCGACAGGAGGCUCACAACAGGC
modifications: 2'-F pyrimidines
B16: FC9 (ssRNA)
RNA: GGGAGAUAAGAAUAAACGCUCAAGCAAUCUCGGACUAGACCAACGACCUUCGUUUGACGCUCAUUCGACAGGAGGCUCACAACAGGC
modifications: 2'-F pyrimidines
B17: FCN56 (ssRNA)
RNA: GGGAGAUAAGAAUAAACGCUCAACGGCUCGAUGCUAGCUGGGACGGCUCAUUGAGACUGGUUGUUCGACAGGAGGCUCACAACAGGC
modifications: 2'-F pyrimidines
B18: FCN27 (ssRNA)
RNA: GGGAGAUAAGAAUAAACGCUCAAAAAGUCGUGUGCGAGAGGCUCAGAUUUAAUGCGGAGGAUUCGACAGGAGGCUCACAACAGGC
modifications: 2'-F pyrimidines
B19: FC69 (ssRNA)
RNA: GGGAGAUAAGAAUAAACGCUCAAACAAAUGUGCGCCCUUGGACGAAGUUAACUCGGACGGUUCUUCGACAGGAGGCUCACAACAGGC
modifications: 2'-F pyrimidines
B20: FCN24 (ssRNA)
RNA: GGGAGAUAAGAAUAAACGCUCAAAUGAGUAGACCGAGGAAGCACCCGGCUCUCAAAUGAGUGAUUCGACAGGAGGCUCACAACAGGC
modifications: 2'-F pyrimidines
B21: FCN64 (ssRNA)
RNA: B20 RNA with G60C
modifications: 2'-F pyrimidines
B22: FCN50 (ssRNA)
RNA: B10 RNA with A35G
modifications: 2'-F pyrimidines
B23: FCN31 (ssRNA)
RNA: GGGAGAUAAGAAUAAACGCUCAAUCUGUUGGUUCAAAGACUUGCUAAGGGGUCGAAGCACCCUUUCGACAGGAGGCUCACAACAGGC
modifications: 2'-F pyrimidines
B24: FCN48 (ssRNA)
RNA: B13 RNA with C38G
modifications: 2'-F pyrimidines
B25: FCN36 (ssRNA)
RNA: GGGAGAUAAGAAUAAACGCUCAAAGCAGAUGGUGCUGAGGUAUCAUGAAGACGCUGACGCUUAUUCGACAGGAGGCUCACAACAGGC
modifications: 2'-F pyrimidines
B26: FC10 (ssRNA)
RNA: GGGAGAUAAGAAUAAACGCUCAACAGACUCAGAGCGCCGUGAGCUUCUGAAGCAAUCGCAGGUUUCGACAGGAGGCUCACAACAGGC
modifications: 2'-F pyrimidines
B27: FCN65 (ssRNA)
RNA: GGGAGAUAAGAAUAAACGCUCAAAGCGCUAGAUGGACGAGAGACUUUUAAGUAGCAAGCGGUAUUCGACAGGAGGCUCACAACAGGC
modifications: 2'-F pyrimidines
B28: FC53 (ssRNA)
RNA: GGGAGAUAAGAAUAAACGCUCAAGCGGGGAGCUCCUCGAGAAACUGAGUUCAACUUCCCAGGUUUCGACAGGAGGCUCACAACAGGC
modifications: 2'-F pyrimidines
B29: FC14 (ssRNA)
RNA: GGGAGAUAAGAAUAAACGCUCAAGUGUUGGAGCUCUUGAUUGGAAAAGUAGAACAAAUCGAAAUUCGACAGGAGGCUCACAACAGGC
modifications: 2'-F pyrimidines
B30: FC30 (ssRNA)
RNA: B29 RNA with G48U, A53G
modifications: 2'-F pyrimidines
B31: FC70 (ssRNA)
RNA: B29 RNA with A53G, U58A
modifications: 2'-F pyrimidines
B32: FC74 (ssRNA)
RNA: B29 RNA with A53G
modifications: 2'-F pyrimidines
B33: FCN29 (ssRNA)
RNA: GGGAGAUAAGAAUAAACGCUCAACUGUGCAGUAACUGCGGAUGAGACCAACCGGAUGGCUCAACUUCGACAGGAGGCUCACAACAGGC
modifications: 2'-F pyrimidines
B34: FCN28 (ssRNA)
RNA: GGGAGAUAAGAAUAAACGCUCAAUGGGCUACAUGUGAGUACACCAGCGUGAGAGUUCUUAGGUUCGACAGGAGGCUCACAACAGGC
modifications: 2'-F pyrimidines
B35: FCN26 (ssRNA)
RNA: GGGAGAUAAGAAUAAACGCUCAAUCCAAGGACCAAACGGGUGUUCGGCAGUGGACUUUAGCAAUUCGACAGGAGGCUCACAACAGGC
modifications: 2'-F pyrimidines
B36: FCN61 (ssRNA)
RNA: B16 RNA with U36G, C41U, C62U
modifications: 2'-F pyrimidines
B37: FCN57 (ssRNA)
RNA: B16 RNA with G24A, C41U, C62U
modifications: 2'-F pyrimidines
B38: FCN8 (ssRNA)
RNA: GGGAGAUAAGAAUAAACGCUCAAUAGCAAGUCCCACAUCCCAGACGGGCUAAAAAGAGGUGGAUUCGACAGGAGGCUCACAACAGGC
modifications: 2'-F pyrimidines

Each binder was assayed against T1, Fibrinogen (Homo sapiens, UniProt P02671-2;P02675;P02679-2 P02671-2:20-644,P02675:31-491,P02679-2:27-437) (assay: filter; low class; printed l mM, probably uM). Settings: chain copies: 2.
T1 sequence (P02671 other isoform, or with tags, fused parts or gaps, chain 1 of 3): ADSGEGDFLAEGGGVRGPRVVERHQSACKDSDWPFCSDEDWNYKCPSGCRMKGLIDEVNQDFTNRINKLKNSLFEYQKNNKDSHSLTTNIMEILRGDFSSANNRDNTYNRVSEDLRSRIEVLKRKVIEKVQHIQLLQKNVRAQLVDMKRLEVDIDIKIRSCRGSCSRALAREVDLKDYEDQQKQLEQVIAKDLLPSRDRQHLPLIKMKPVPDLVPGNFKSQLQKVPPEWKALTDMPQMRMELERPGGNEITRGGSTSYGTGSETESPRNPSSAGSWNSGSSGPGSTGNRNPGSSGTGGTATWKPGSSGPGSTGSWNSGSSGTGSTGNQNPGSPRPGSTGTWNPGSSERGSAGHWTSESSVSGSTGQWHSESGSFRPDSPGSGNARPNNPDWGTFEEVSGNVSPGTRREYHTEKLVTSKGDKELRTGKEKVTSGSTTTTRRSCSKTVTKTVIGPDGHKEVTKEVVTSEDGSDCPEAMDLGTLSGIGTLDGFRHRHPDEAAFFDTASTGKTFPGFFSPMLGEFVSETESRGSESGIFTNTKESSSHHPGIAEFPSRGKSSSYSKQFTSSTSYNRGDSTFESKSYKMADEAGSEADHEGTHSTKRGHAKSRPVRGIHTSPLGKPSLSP
T1 sequence (P02675 31-491, chain 2 of 3): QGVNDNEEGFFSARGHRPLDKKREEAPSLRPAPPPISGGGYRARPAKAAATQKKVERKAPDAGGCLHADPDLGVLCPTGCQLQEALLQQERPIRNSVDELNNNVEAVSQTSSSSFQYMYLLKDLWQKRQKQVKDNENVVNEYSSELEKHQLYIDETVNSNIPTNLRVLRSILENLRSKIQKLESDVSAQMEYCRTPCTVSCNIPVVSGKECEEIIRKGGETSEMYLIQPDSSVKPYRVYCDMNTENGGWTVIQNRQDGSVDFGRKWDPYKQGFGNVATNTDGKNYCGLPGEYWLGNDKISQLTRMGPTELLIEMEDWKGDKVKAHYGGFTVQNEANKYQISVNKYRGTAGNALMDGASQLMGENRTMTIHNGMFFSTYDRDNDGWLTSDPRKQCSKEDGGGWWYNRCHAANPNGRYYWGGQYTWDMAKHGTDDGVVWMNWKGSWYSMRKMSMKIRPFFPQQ
T1 sequence (P02679 other isoform, or with tags, fused parts or gaps, chain 3 of 3): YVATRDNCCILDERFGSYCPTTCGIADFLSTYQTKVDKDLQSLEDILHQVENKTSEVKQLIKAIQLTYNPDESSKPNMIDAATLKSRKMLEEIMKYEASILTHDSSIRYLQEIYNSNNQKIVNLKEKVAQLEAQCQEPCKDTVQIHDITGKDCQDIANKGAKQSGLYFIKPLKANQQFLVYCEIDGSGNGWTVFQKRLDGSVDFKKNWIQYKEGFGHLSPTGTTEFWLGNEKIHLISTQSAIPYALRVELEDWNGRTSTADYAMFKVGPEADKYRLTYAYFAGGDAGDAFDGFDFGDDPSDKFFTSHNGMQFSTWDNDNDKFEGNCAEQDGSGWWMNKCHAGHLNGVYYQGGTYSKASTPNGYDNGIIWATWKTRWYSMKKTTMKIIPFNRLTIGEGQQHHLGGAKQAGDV

Binder	Kd
B1	> 1000 nM
B2	> 1000 nM
B3	> 1000 nM
B4	> 1000 nM
B5	> 1000 nM
B6	> 1000 nM
B7	> 1000 nM
B8	> 1000 nM
B9	> 1000 nM
B10	> 1000 nM
B11	> 1000 nM
B12	> 1000 nM
B13	> 1000 nM
B14	> 1000 nM
B15	> 1000 nM
B16	> 1000 nM
B17	> 1000 nM
B18	> 1000 nM

The binders below were run against Fibrin (human plasma clot) (Homo sapiens, UniProt P02671-2;P02675;P02679-2 P02671-2:36-644,P02675:45-491,P02679-2:27-437) (assay: competition; homogenized plasma clot, Scatchard high-affinity component). Settings: tags: clot from recalcified plasma, complex target; chain copies: 2.
Method: The two best binders in the PE model which had the lowest affinity for fibrinogen were pursued. Both of these clones resided in Motif II. Clone 69 (SEQ ID NO: 55) was analyzed for binding in vitro homogenized clot. By adding a fixed amount of radiolabeled clone 69 (2 nM) to a fixed amount of clot (200 μliters plasma equivalent) with increasing amount of non-radiolabeled ligand, binding could be quantitated. Analyzing data in a Scatchard format yield a two-component curve with high and low affinity binding components. […] These sites were saturable. […] As such it appears that the binding of a specific ligand to clots is specific and stable.

Fibrin (human plasma clot), sequence (P02671 other isoform, or with tags, fused parts or gaps, chain 1 of 3): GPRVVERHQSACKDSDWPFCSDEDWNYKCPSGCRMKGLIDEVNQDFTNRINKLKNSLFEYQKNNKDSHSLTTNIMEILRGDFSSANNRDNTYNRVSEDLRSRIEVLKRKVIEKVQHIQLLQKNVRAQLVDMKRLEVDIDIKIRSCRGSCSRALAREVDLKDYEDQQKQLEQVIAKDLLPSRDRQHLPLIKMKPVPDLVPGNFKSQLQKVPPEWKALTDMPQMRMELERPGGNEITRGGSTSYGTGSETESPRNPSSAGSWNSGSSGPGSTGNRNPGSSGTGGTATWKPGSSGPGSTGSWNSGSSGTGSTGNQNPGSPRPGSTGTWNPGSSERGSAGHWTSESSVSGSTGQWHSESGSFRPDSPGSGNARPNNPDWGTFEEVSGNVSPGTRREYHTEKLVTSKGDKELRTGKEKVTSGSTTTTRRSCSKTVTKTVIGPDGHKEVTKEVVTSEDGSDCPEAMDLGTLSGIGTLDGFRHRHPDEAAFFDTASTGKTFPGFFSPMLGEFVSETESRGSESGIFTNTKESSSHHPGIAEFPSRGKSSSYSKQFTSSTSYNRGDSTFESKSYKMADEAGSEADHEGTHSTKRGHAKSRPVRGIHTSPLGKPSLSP
Fibrin (human plasma clot), sequence (P02675 45-491, chain 2 of 3): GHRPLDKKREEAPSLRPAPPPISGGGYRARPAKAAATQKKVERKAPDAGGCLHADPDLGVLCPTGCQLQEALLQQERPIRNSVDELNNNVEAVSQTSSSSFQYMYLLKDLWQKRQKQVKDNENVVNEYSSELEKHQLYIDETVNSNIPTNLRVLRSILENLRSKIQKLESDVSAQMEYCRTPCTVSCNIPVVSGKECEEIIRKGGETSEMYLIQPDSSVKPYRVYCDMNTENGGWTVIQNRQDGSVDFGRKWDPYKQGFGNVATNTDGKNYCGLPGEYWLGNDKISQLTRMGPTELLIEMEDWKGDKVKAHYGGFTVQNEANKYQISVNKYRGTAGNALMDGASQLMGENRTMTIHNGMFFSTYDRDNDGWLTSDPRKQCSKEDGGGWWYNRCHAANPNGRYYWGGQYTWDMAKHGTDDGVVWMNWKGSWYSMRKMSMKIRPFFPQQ
Fibrin (human plasma clot), sequence (P02679 other isoform, or with tags, fused parts or gaps, chain 3 of 3): as the sequence (P02679 other isoform, or with tags, fused parts or gaps, chain 3 of 3) above

Binder	Kd
B19	14.1 nM

The binders below were run against T1, Fibrinogen (assay: filter; moderate fibrinogen affinity). Settings: chain copies: 2.

Binder	binding result
B20	binds
B21	binds
B22	binds
B23	binds
B24	binds
B25	binds

Each binder was assayed against T1, Fibrinogen (assay: filter; high class; printed l mM, probably uM). Settings: chain copies: 2.

Binder	Kd
B26	< 1000 nM
B27	< 1000 nM
B28	< 1000 nM
B29	< 1000 nM
B30	< 1000 nM
B31	< 1000 nM
B32	< 1000 nM
B33	< 1000 nM
B34	< 1000 nM
B35	< 1000 nM
B36	< 1000 nM
B37	< 1000 nM

The binders below were run against T1, Fibrinogen (assay: filter; low class; printed l mM, probably uM; clone printed FCNB). Settings: chain copies: 2.

Binder	Kd
B38	> 1000 nM
